Measurements: US20150330991A1 (GWANGJU INSTITUTE OF SCIENCE AND TECHNOLOGY, published 2015)

Experiments:
[1] = biological target: T1, fibronectin extra domain B (ED-B) (UniProt P02751 1266-1356, biotinylated (biotin ED-B), site not stated); test: SPR (Biacore X), biotin-EDB on a streptavidin SA chip
T1 construct: domain: ED-B; Biotin-EDB captured on a streptavidin SA chip (2,000 RU) for SPR and on streptavidin-coated wells for ELISA; also called biotin ED-B; biotin-EDB
Description: (§1) The bipodal peptide binder found from BPB2EDB, BPB3EDB, and BPB4EDB maturation libraries were synthesized (Anygen, Korea). The affinity measurement was conducted using BIAcore X (Biacore AB, Uppsala, Sweden). 2,000 RU of biotin-EDB was allowed to flow on the streptavidin SA chip (Biacore) for immobilization. PBS (pH 7.4) was used as a running buffer, and kinetics at different concentrations was measured under a flow rate of 30 μl per minute. The affinity was calculated using BlAevaluation software (Biacore AB, Uppsala, Sweden).

[2] = biological target: T1, fibronectin extra domain B (ED-B); test: SPR (BIAcore X), biotin-EDB on streptavidin SA chip, synthetic peptide as analyte; peptide 1
Description: as §1

[3] = biological target: T1, fibronectin extra domain B (ED-B); test: SPR (BIAcore X), biotin-EDB on streptavidin SA chip, synthetic peptide as analyte; peptide 2
Description: as §1

[4] = biological target: T2, streptavidin (UniProt P22629 37-163, limits assumed); test: SPR (BIAcore X), ratio of KD values
T2 construct: Immobilised on a CM5 chip (2000 RU) for SPR; coated on plates for ELISA; also called streptavidin protein
T2 sequence (P22629 37-163 limits assumed): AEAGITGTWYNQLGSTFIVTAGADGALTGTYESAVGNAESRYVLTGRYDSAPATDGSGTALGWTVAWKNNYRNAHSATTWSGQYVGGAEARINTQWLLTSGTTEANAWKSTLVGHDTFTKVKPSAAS
Description: (§2) A streptavidin-binding peptide optimized peptide and an existing peptide were synthesized (Anygen). The affinity measurement was conducted using BIAcore X (Biacore AB, Uppsala, Sweden). Here, 2000 RU of streptavidin was allowed to flow on the CM5 chip (Biacore) for immobilization. PBS (pH 7.4) was used as a running buffer, and the kinetics at different concentrations was measured under a flow rate of 30 μl per minute. The affinity was calculated using BlAevaluation software (Biacore AB, Uppsala, Sweden).
(§3) Optimized peptide Strep_opti1 and control peptide […] were synthesized, and affinities thereof were measured using the SPR Biacore system.

[5] = biological target: T2, streptavidin; test: SPR (BIAcore X), streptavidin immobilised on CM5 chip, synthetic peptide as analyte
Description: as §2, §3

[6] = biological target: T3, BSA (bovine, UniProt P02769); test: phage ELISA, wells coated with 5 µg/ml protein, anti-M13-HRP, absorbance at 450 nm
T3 construct: not further described; off-target control protein of the specificity ELISA
T3 sequence (P02769 25-607 limits assumed): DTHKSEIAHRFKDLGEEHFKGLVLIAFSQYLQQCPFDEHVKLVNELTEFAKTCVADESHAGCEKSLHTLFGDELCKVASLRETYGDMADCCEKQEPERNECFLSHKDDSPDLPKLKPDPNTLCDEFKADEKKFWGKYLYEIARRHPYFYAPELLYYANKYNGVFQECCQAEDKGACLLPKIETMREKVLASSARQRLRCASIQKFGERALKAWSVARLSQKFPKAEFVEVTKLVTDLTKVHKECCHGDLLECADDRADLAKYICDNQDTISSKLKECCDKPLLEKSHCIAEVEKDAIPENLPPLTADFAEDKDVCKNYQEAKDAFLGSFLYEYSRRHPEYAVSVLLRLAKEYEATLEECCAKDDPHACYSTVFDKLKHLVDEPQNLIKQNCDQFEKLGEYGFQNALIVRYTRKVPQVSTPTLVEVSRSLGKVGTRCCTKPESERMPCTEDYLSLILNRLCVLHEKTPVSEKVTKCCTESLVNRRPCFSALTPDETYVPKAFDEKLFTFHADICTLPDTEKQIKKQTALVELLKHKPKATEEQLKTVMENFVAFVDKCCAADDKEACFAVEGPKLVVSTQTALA
Description: In order to investigate specificities to streptavidin, of peptides (Strep_opti1 and Strep_opti2) obtained through sequencing, recombinant phages expressing these peptides were used to investigate specificities to streptavidin, BSA, ovalbumin, and VEGF. First, 5 μg/ml streptavidin, BSA, ovalbumin, and VEGF were put in a 96-well ELISA plate (50 μl per well), and then allowed to stand at 4° C. overnight. Next day, all the wells were washed three times with 0.1% PBST, and blocked at room temperature for 2 hrs using 2% BSA diluted with PBS. Then, the solution was discarded, followed by washing with 0.1% PBST three times. 800 μl of recombinant phages of each of Strep_opti1 and Strep_opti2 and 200 μl of 10% BSA were added thereto, and each 100 μl was dispensed into streptavidin, BSA, ovalbumin, and VEGF wells, followed by standing at 27° C. for 1 hr. After washing five times with 0.1% PBST solution, the HRP-conjugated anti-M13 antibody (GE Healthcare) was diluted to 1:1,000, and then the reaction was performed at 27° C. for 1 hr. After washing five times with 0.1% PBST, 100 μl of the TMB solution was dispensed into each well to induce a colorimetric reaction, and then the reaction was stopped by adding 100 μl of 1 M HCl. The absorbance was measured at 450 nm.

[7] = biological target: T2, streptavidin; test: as above
Description: In order to investigate specificities to streptavidin, of peptides (VEGFR1_opti1, VEGFR1_opti2, and VEGFR1_opti3) obtained through sequencing, recombinant phages expressing these peptides were used to investigate specificities to VEGFR1, VEGFR2, streptavidin, HSA, TNF, and VEGF. First, 5 μg/ml VEGFR1, VEGFR2, streptavidin, HSA, TNF, and VEGF were put in a 96-well ELISA plate (50 μl per well), and then allowed to stand at 4° C. overnight. The next day, all the wells were washed three times with 0.1% PBST, and blocked at room temperature for 2 hrs using 2% BSA diluted with PBS. Then, the whole solution was discarded, followed by washing three times with 0.1% PBST. 800 μl of recombinant phages of each of VEGFR1_opti1, VEGFR1_opti2, and VEGFR1_opti3 and 200 μl of 10% BSA were added thereto, and each 100 μl was dispensed into VEGFR1, VEGFR2, streptavidin, HSA, TNF, and VEGF wells, followed by standing at 27° C. for 1 hr. After washing five times with 0.1% PBST solution, the HRP-conjugated anti-M13 antibody (GE Healthcare) was diluted to 1:1,000, and then the reaction was performed at 27° C. for 1 hr. After washing with 0.1% PBST five times, 100 μl of the TMB solution was dispensed into each well to induce a colorimetric reaction, and then the reaction was stopped by adding 100 μl of 1 M HCl. The absorbance was measured at 450 nm.

[8] = biological target: T4, vascular endothelial growth factor receptor 1 (VEGFR1) (UniProt P17948 27-756, limits assumed); test: SPR (BIAcore X), from RU at 5 µM against the control's RU at 200 µM
T4 construct: Immobilised on a CM5 chip (7000 RU) for SPR; coated on plates for ELISA; also called VEGFR1 protein
T4 sequence (P17948 27-756 limits assumed): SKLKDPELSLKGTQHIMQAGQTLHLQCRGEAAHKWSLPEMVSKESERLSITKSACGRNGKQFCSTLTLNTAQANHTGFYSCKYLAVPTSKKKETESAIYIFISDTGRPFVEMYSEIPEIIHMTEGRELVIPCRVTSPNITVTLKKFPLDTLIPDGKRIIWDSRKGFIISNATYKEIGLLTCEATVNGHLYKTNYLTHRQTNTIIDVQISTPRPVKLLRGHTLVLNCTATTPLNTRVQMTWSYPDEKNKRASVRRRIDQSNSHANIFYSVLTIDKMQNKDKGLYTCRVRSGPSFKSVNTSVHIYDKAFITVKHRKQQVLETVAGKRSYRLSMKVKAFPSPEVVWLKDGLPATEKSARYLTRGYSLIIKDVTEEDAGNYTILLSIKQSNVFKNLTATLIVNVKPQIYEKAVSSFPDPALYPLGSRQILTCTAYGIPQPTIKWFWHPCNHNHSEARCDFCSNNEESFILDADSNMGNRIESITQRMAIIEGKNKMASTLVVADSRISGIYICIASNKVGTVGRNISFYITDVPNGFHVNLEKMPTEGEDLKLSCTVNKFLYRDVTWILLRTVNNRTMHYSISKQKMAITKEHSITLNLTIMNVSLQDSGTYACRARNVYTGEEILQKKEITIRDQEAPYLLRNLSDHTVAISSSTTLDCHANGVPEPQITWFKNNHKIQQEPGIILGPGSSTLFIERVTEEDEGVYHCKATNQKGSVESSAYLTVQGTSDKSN
Description: as §2, with “VEGFR1-binding” for “streptavidin-binding”, “7000” for “2000”, “VEGFR1” for “streptavidin”
Optimized peptide VEGFR1_opti1 and control peptide GNQWFI were synthesized, and affinities thereof were measured using the SPR Biacore system.

[9] = biological target: T1, fibronectin extra domain B (ED-B); test: SPR (BIAcore X), biotin-EDB on streptavidin SA chip

T1 sequence (P02751 1266-1356 limits assumed): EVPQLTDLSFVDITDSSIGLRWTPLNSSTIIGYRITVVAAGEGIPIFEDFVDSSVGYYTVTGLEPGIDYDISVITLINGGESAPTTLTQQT

B1: peptide 1 (WGGPVRGSWTWENGKWTWKGIIRLEQ) (peptide)
peptide: WGGPVRGSWTWENGKWTWKGIIRLEQ
notes: Synthetic in SPR; on phage in the colony ELISA; also called BPB2 peptide 1
For B1, the koff [1] was 0.02 s⁻¹, the kon [1] was 250000 M⁻¹ s⁻¹ and the Kd [2] was 115 nM.

B2: peptide 2 (ADGRVRGSWTWENGKWTWKGIIRLEQ) (peptide)
peptide: ADGRVRGSWTWENGKWTWKGIIRLEQ
notes: Synthetic in SPR; on phage in the colony ELISA; also called BPB2 peptide 2
With B2 the koff [1] was 0.01 s⁻¹, the kon [1] was 370000 M⁻¹ s⁻¹ and the Kd [3] was 35 nM.

For WSHPQFEKGGGSWTWENGKWTWKGAHPQVR (Synthetic peptide in SPR) [Strep_opti1], the “fold increase in affinity compared with control peptide WSHPQFEK” value [4] was 1220 fold, the Kd [5] was 67 nM and the binding result [6] was “no binding”.

GNQWFIGGGSWTWENGKWTWKGKLQNPM (also called KPI-BPB VEGFR1_opti2) [VEGFR1_opti2]: no binding [7].

GNQWFIGGGSWTWENGKWTWKGQQAIQP (also called KPI-BPB VEGFR1_opti3) [VEGFR1_opti3]: no binding [7].

WSHPQFEKGGGSWTWENGKWTWKGTLIHPM [Strep_opti2]: no binding [6].

B3: VEGFR1_opti1 (peptide)
peptide: GNQWFIGGGSWTWENGKWTWKGRIPKNR
notes: Synthetic peptide in SPR; also called optimized peptide VEGFR1_opti1; KPI-BPB VEGFR1_opti1
With B3 the “fold increase in affinity compared with the control peptide” value [8] was ~360 fold and the binding result [7] was “no binding”.

CSSPIQGSWTWENGKWTWKGIIRLEQ (also called BPB2EDB; BPB2) [peptide 3 (CSSPIQGSWTWENGKWTWKGIIRLEQ)] showed a Kd [9] of 16 nM, a koff [9] of 0.00051 s⁻¹ and a kon [9] of 30000 M⁻¹ s⁻¹.

B4: streptavidin-binding peptide WSHPQFEK (peptide)
peptide: WSHPQFEK
notes: Synthetic control peptide in SPR; also called known peptide
For B4, the Kd [5] was 82000 nM.
